Source: patent US20220362394A1 (SUTRO BIOPHARMA, published 2022)
Substitutions are numbered along the chain they refer to.

B1: 10F4 (antibody, V domains shown)
VH: AVTLDESGGGLQTPGGALSLVCKASGFTFSGYNMGWVRQAPGKGLEYVAGITYGTGSYTAYGAAVKGRATISRDNGQSTLRLQLNNLRAEDTATYYCARGGGLNSYGCSGANIDAWGHGTEVIVSS
VL: ALTQPSSVSANLGGTVKITCSGGGNYFGSYYYGWYQQKAPGSAPVTVIYNNNNRPSDIPSRFSGSTSGSTSTLTISGVRAEDEAVYFCGGFDSSTDAIFGAGTTLTVL
notes: Chicken HybriFree-derived antibody; also called Antibody 37
B2: 10E10 (antibody, V domains shown)
VH: AVTLDESGGGLQTPGGGLSLVCKASGFTFSSYGMGWMRQAPGKGLEFVARINSGGSSYTDYGSAVKGRATISRDDGQSTVRLQLNNLRAEDTGIYYCTRGGGGASIDGWGHGTEVIVSS
VL: B1 VL with L12P, G14E, F27A, A39S, V45L, N51S, T66L, S71G, S76T
notes: Chicken HybriFree-derived antibody; also called Antibody 46
B3: 10H1 (antibody, V domains shown)
VH: AVTLDESGGGLQTPGGALSLVCKASGFTFSGYGMGWMRQAPGKGLEYVARINSAGSDTDYGAAVKGRATISRDNGQSTVRLQLNNLRAEDTATYFCTRGGGGASIDGWGHGTEVIVSS
VL: B1 VL with L12P, G14E, F27Y, D57N, T66K, S71G, S76T, R79Q, T95S
notes: Chicken HybriFree-derived antibody; also called Antibody 45
B4: 9A5 (antibody, V domains shown)
VH: AVTLDESGGGLQTPGGAVSLVCKASGFSISDYGMGWMRQAPGKGLQYVARIDHDGRYTDYGAVVKGRATISRDNGQSTVRLQLNNLRAEDTGTYYCTRGGGAASIDTWGHGTEVIVSS
VL: B1 VL with L12P, G14E, F27V, S29G, P44L, V47L, D57N, S76T, G90S
notes: Chicken HybriFree-derived antibody; also called Antibody 42
B5: 9E12 (antibody, V domains shown)
VH: B3 VH with A17G, G31D, M34L, D57G, D59Y, A62S, K65D, A92G, F95Y
VL: B1 VL with L12P, G14E, N25S, F27Y, A39S, V47L, S71G, S76T, F87Y, G90S
notes: Chicken HybriFree-derived antibody; also called Antibody 43
B6: 9H1 (antibody, V domains shown)
VH: AVTLDESGGGLQTPGGALSLVCKGSGFTFSDYGMGWMRQAPGKGLQYVARINSAGSDTNYGSAVKGRATISRDDGQSTVRLQLSSLRAEDTGIYYCTRGGGGASIDGWGHGTEVIVSS
VL: B1 VL with L12P, G14E, N25S, F27Y, A39S, V47L, S71G, S76T, F87Y, G90S
notes: Chicken HybriFree-derived antibody; also called Antibody 44
B7: 2291-A01 (antibody, V domains shown)
VH: EVQLVESGGGLVQPGGSLRLSCAASGFNIDPYTIHWARQAPGKGLEWVAHISPYDGYTDYADSVKGRFTISADTSKNTAYLQMNSLRAEDTAVYYCARDFYDRYSTYVLDYWGQGTLVTVSS
VL: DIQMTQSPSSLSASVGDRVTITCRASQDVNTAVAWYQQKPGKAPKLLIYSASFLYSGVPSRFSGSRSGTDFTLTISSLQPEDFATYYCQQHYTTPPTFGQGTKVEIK
notes: also called Antibody 29
B8: 2190-B01 (antibody, V domains shown)
VH: EVQLVESGGGLVQPGGSLRLSCAASGFNISSYWIHWVRQAPGKGLEWVGVITPSGGYTYYADSVKGRFTISADTSKNTAYLQMNSLRAEDTAVYYCARDLGGGYWVGFFDYWGQGTLVTVSS
VL: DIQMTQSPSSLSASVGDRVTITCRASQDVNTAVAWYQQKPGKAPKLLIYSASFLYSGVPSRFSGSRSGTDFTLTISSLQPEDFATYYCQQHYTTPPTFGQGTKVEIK
notes: also called Antibody 16
B9: 11D6 (antibody, V domains shown)
VH: AVTLDESGGGLQTPGGTLSLVCKASGFTFSSFNMFWVRQAPGEGLEWVAYIRNDGRSTSYGPAVKGRATISRDNGQSTVRLQLNNLRAEDTGTYFCAKTTCVGSGGCIDTWGHGTEVIVSS
VL: ALTQPSSVSANPGETVEITCSGGNSDYGWFQQKSPGSAPVTVIYRNNQRPSDIPSRFSGSGSGSTNTLTITGVQAEDEAIYYCGNVDFTDDVFGAGTTLTVL
notes: Chicken HybriFree-derived antibody; also called Antibody 32

These binders were tested against T1, rat BCMA on cells (rat) (assay: FACS, 293T-ratBCMA cells).
T1 construct: whole, on cells

Binder	Bmax	Kd
B1	410 MFI	5.47 nM
B2	906 MFI	6.83 nM
B3	4350 MFI	0.39 nM
B4	2780 MFI	7.13 nM
B5	4690 MFI	2.61 nM
B6	3450 MFI	1.32 nM

These binders were tested against T2, cyno BCMA-Fc (cynomolgus monkey, UniProt Q02223 1-54 (human entry)) (assay: ELISA, coated cynoBCMA-Fc).
T2 construct: Custom protein production; also called cynomolgus BCMA-Fc; not shown: Fc part not described

Binder	Bmax	EC50
B7	4.77e+06	0.33 nM
B8	2.15e+06	19.3 nM

The binders below were run against T3, human BCMA-Fc (human, UniProt Q02223 1-54) (assay: SPR Biacore, human BCMA-Fc kinetics).
T3 construct: Bought from R&D Systems; also called huBCMA-Fc; not shown: Fc part not described
T3 sequence: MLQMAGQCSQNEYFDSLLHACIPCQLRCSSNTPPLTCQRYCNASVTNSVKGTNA
Description: (§1) Anti-Fab or anti-Fc polyclonal antibodies were immobilized onto a CM5 chip (GE Life Sciences) using amine coupling chemistry (from Amine Coupling Kit, GE Life Sciences). The immobilization steps were carried out at a flow rate of 25 μL/min in 1×HBS-EP+ buffer (GE Life Sciences; 10× Stock diluted before use). The sensor surfaces were activated for 7 min with a mixture of NHS (0.05 M) and EDC (0.2 M). The anti-Fab or anti-Fc antibodies were injected over all 4 flow cells at a concentration of 25 μg/ml in 10 mM sodium acetate, pH 4.5, for 7 min. Ethanolamine (1 M, pH 8.5) was injected for 7 min to block any remaining activated groups.
(§2) Off-rate and kinetic binding experiments were performed at 25° C. using 1×HBS-EP+ buffer. […] After capturing ligand (antibody) on the anti-Fab or anti-Fc surface, the analyte (human BCMA-Fc, cyno BCMA-Fc, or human BCMA from R&D Systems, custom protein production, or Sigma Aldrich, respectively) was bound for 180 seconds, followed by a 600 second dissociation phase at a flow rate of 50 μL/min. Between each ligand capture and analyte binding cycle, regeneration was carried out using 2 injections of 10 mM glycine pH 2.0 for 30 seconds at 30 μL/min, followed by a 30 second buffer wash step.
(§3) The data was fit with the Biacore T200 Evaluation software, using a 1-1 Langmuir binding model. KD (affinity, nM) was determined as a ratio of the kinetic rate constants calculated from the fits of the association and dissociation phases.

Binder	Kd	koff	kon
B9	0.313 nM	0.000318 s⁻¹	1.02e+06 M⁻¹ s⁻¹
B3	2.92 nM	17.9 s⁻¹	6.14e+09 M⁻¹ s⁻¹

Each binder was assayed against T4, human BCMA on cells (human, UniProt Q02223 1-184) (assay: FACS, NCI-H929 cells).
T4 construct: also called hBCMA; BCMA on NCI-H929, ARP-1, OPM-2, U266B1, MM.1S, RPMI-8226 cells
T4 sequence: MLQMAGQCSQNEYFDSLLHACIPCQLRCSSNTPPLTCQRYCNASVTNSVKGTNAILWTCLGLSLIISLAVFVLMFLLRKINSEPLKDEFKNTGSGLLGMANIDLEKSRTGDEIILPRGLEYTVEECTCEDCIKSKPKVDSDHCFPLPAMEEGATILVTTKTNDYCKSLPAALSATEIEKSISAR
Description: (§4) Variants for which sufficient protein was purified in secondary screening were tested in a fluorescence-activated cell sorting (FACS) cell-binding assay. […] 6-12 point dilutions of anti-BCMA variants starting from concentrations of about 100-200 nM antibody were dispensed into each well using a BioMekFX (Beckman Coulter). Cells were then incubated on ice for 1 hr, washed with FACS buffer and incubated for 1 hr on ice with […] FACS buffer containing 2.5 μg/ml Alexa647-conjugated Goat Anti-Human IgG dispensed using BioMekFX (Beckman Coulter). Cells were then washed 2× with FACS buffer and fixed for 10 minutes in […] PBS with 2% paraformaldehyde (PFA) prior to fluorescence detection. Samples were acquired using a Beckton Dickinson LSRII FACS. Geometric Mean Fluorescence Intensity of BCMA antibody binding was analyzed using FlowJo® software (Tree Star, Inc.).

Binder	Bmax	Kd
B7	32500 MFI	4.9 nM
B9	26400 MFI	47.5 nM
B1	18700 MFI	10.5 nM
B2	3440 MFI	4.67 nM
B3	22500 MFI	0.36 nM
B4	19700 MFI	1.01 nM
B5	8140 MFI	0.52 nM
B6	6160 MFI	1 nM

What follows are binders tested against T5, cynomolgus BCMA on cells (cynomolgus monkey, UniProt Q02223 1-184 (human entry)) (assay: FACS, 293T-cynoBCMA cells; NSB = non-saturating binding).
T5 sequence (Q02223 other isoform, or with tags, fused parts or gaps): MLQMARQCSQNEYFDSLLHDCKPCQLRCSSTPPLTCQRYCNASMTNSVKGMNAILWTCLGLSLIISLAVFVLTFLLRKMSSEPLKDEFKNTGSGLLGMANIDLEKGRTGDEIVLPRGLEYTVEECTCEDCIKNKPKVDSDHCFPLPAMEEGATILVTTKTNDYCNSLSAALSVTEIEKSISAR

Binder	binding result
B8	binds

These binders were tested against T3, human BCMA-Fc (assay: ELISA, coated huBCMA-Fc).

Binder	Bmax	EC50
B7	5e+06	0.39 nM
B8	3.68e+06	0.3 nM

These binders were tested against T3, human BCMA-Fc (assay: SPR Biacore, antibody captured, 25 C).
Description: as §1, §2, §3

Binder	Kd	koff	kon
B7	0.0438 nM	2.82e-05 s⁻¹	644000 M⁻¹ s⁻¹
B8	5.23 nM	0.000712 s⁻¹	136000 M⁻¹ s⁻¹

What follows are binders tested against T5, cynomolgus BCMA on cells (assay: FACS, 293T-cynoBCMA cells).
Description: as §4

Binder	Bmax	Kd
B7	67200 MFI	1 nM
B9	27700 MFI	12.2 nM
B1	12800 MFI	5.94 nM
B2	4540 MFI	18.9 nM
B3	21200 MFI	0.25 nM
B4	18200 MFI	0.64 nM
B5	13200 MFI	0.34 nM
B6	11400 MFI	0.39 nM
